Laboratory results as given in patent US20040014707A1 (published 2004).

What was measured:
[1] = target: Bacillus anthracis protective antigen PA83 (Bacillus anthracis, UniProt P13423 30-764); assay: SPR (BIACORE), PA83 on CM5 chip, 4 concentrations of monomeric scFv
EGFP-PA32 fusion protein = EGFP-PA32 fusion protein (Bacillus anthracis); assay: SPR (BIAcore), […], single concentration
recombinant PA32 protein = recombinant PA32 protein (Bacillus anthracis); assay: SPR, PA32 coupled to CM5 chip, single scFv concentration

Binder	Kd [1]	binding result (EGFP-PA32 fusion protein)	binding result (recombinant PA32 protein)
scFv#1 (scFv) scFv: QVNLRESGGGLVQPGGSLRLSCAASGFTFSSYAMSWVRQAPGKGLEWVSAISSNGGSTYYADSVKGRFTISRDNSKNTLYLQMSSLRAEDTALYYCARERGAAAASDYWGPGTLVTVSSGGGGSSGGGSGGGGSQSVLTQPPSASGTPGQRVTISCSGSSSNIGSNSVNWYQQLPGTAPKLLIYSNSNRPSGVPDRFSGSKSGTSASLAISGLRSEDEADYYCAAWDDSLSGRVFGGGTKLTVLGAAAEQKLISEEDLNGAAHHHHHH	190 nM		
scFv#4 (scFv) scFv: QVQLVESGGGLVQPGGSLRLSCSASGFTFSSYAMHWVRQAPGKGLEYVSAISSNGGSTYYADSVKGRFTISRDNSKNTLYLQMSSLRAEDTAVYYCVKDLHVGRLQLGVFDYWGQGTLVTVSSGGGGSGGGGSGGGGSSELTQDPAVSVALGQTVRITCQGDSLRSYYASWYQQKPGQAPVLVIYGKNNRPSGIPDRFSGSSSGNTASLTITGAQAEDEADYYCNSRDSSSTHRGVFGGGTKLTVLGAAAEQKLISEEDLNGAAHHHHHH	310 nM		
scFv#12 (scFv) scFv: QVQLVESGGGVVQPGRSLRLSCAASGFTFNNHAMEWVRQAPGKGLEWVSGINWDGGSTGYADSVKGRFAVSRDNAKNSLYLQINSLRDEDTAVYYCARANWGRIDYWGQGTLVTVSSGGGGSGGGGSGGGGSSELTQDPAVSVALGQTVRITCQGDSLRRYYASWYQQKPGQAPVLVIYGKNNRPSGIPDRFSGSSSGNTASLTITGAQAEDEADYYCHSRDSSGTHLRVFGGGTKLTVLGAAAEQKLISEEDLNGAAHHHHH		no binding	no binding
scFv#24 (scFv) scFv: QVQLVESGGGLVQPGGSLRLSCSASGFTFSSYAMHWVRQAPGKGLEYVSAISSNGGSTYYADSVKGRFTISRDNSKNTLYLQMSSLRAEDTAVYYCVKDLHVGRLQLGVFDYWGQGTLVTVSSGGGGSGGGGSGGGGSSELTQDPAVSVAVGQTVKITCQGDSLRSYYATWYQQKPGQAPVLVIYGKNSRPSGIPDRFSGSSSGTTASFTITGAQAEDEADYYCNSRDSTNNQLFGGGTKLTVLGAAAEQKLISEEDLNGAAHHHHH	430 nM		
